The source of these data is publication doi:10.1101/2021.06.03.446896.

The test concerns the target Cy5-labelled 46w60 mononucleosome (histone octamer on DNA). Nature of the test: MST.

Where only a bound is given, the exact number is not on record here.

What is called Kd is a measure of binding affinity in units of concentration. A high value points to weaker binding. “human CHD4 (from UniProt Q14839 1-1912) (enzyme)”: the Kd was 41 nM, the fold change of Kd with 2 uM (CA)20 RNA against no RNA is below 2 fold and the fold reduction of affinity with 2 uM (GA)20 RNA against no RNA is 20 fold.
